Results: patent US8541175B2, “Detection of molecular interactions using a reduced affinity enzyme complementation reporter system” (The Board of Trustees of the Leland Stanford Junior …, priority 2006, dated 2013)

Legend:
Format in all cases: cell-based
EGFR and ErbB2 = EGFR and ErbB2 (Homo sapiens, UniProt P04626); assay: Low affinity β-gal complementation, EGFR-ErbB2 heterodimerization; details: for loss of β-gal activity (heterodimer dissociation) after removal of ligand: EGFRω-ErbB2α* cells, ligand added, then washout
Text: To perform a quantitative comparison of the different pairs of receptors, receptor expression level in cells was controlled, as the amount of β-gal fusion protein affects β-gal enzyme activity (FIG. 2). […] These cells were engineered to express either the ErbB2-ω or the EGFR-ω fusion proteins. Each of the ω-expressing parental cell lines were then split and transduced with each of three constructs encoding different α-fusion proteins, EGFR-α*, ErbB2-α*, and ErbB3-α*. Because the cells were generated from the same parental line, they expressed equivalent amounts of ω. To allow measurement of α* chimeric protein expression levels, YFP was included in each construct, between the ErbB receptor and the α*.

[1] = target: EGFR homodimers in the presence of excess ErbB2 (Homo sapiens, UniProt P04626); assay: EGFR homodimerization in EGFRα*-EGFRω cell line overexpressing wild-type ErbB2; details: EGFRα*-EGFRω cells overexpressing wild-type ErbB2; increasing concentrations of EGF
Text: As a test of this hypothesis, the wildtype ErbB2 lacking a β-gal fragment was overexpressed in the EGFRα*-EGFRω cell line. […] This disruption allowed EGFRα* and EGFRω to interact and homodimerize.

ErbB2 homodimers = target: T1, ErbB2 homodimers (Homo sapiens, UniProt P04626); assay: Low affinity β-gal complementation, ErbB2ω-ErbB2α* homodimerization; details: ligand for 45 min; 20,000 cells per well
T1 construct: ErbB2 (aa 1-686); expressed in transfected cells; host or cells: C2C12 cells, retroviral transduction
Text: To perform a quantitative comparison of the different pairs of receptors, receptor expression level in cells was controlled, as the amount of β-gal fusion protein affects β-gal enzyme activity (FIG. 2). To this end, two parental cell lines were constructed using C2C12 cells in which ErbB family members are expressed at very low levels (S. Corti et al., Exp Cell Res 268, 36 (Aug. 1, 2001)). These cells were engineered to express either the ErbB2-ω or the EGFR-ω fusion proteins. Each of the ω-expressing parental cell lines were then split and transduced with each of three constructs encoding different α-fusion proteins, EGFR-α*, ErbB2-α*, and ErbB3-α*. Because the cells were generated from the same parental line, they expressed equivalent amounts of ω. To allow measurement of α* chimeric protein expression levels, YFP was included in each construct, between the ErbB receptor and the α*. […] YFP was imaged by confocal microscopy to ensure that the receptor fusion proteins were appropriately localized to the plasma membrane, which is essential to their function (FIG. 3).
Cells were returned to a 37° C.
Isoproterenol, propranolol and rapamycin were from Sigma.

Substance | loss of β-gal activity (heterodimer dissociation) after removal of ligand (EGFR and ErbB2) | EGFRω-ErbB2α* heterodimer formation over time (enzyme activity) (EGFR and ErbB2; 100 ng/ml EGF) | ligand-induced heterodimerization of EGFR with ErbB2 (β-gal activity) (EGFR and ErbB2; ligand for 45 min, 20,000 cells per well) | β-gal activity in response to EGF, no antibody [1] | response of ErbB2ω-ErbB2α* cells to ligand (β-gal activity) (ErbB2 homodimers)
TGF-α: recombinant human TGF-α from Peprotech, EGFR ligand | signal decayed more rapidly following TGF-α than after EGF exposure | – | – | – | –
EGF: recombinant human EGF from Peprotech, ligand that binds the EGFR | β-gal activity decreased over time | time-dependent increase in enzyme activity | heterodimerization of EGFR with ErbB2 | failed to stimulate β-gal activity | not responsive
